The assay concerns the target T1, Irga6 (GST tag cleaved off) (mouse, UniProt Q9QZ85 1-411).
T1 construct: Irga6, mouse IRG protein, cleaved from the GST fusion as a near-native protein; Lacks the N-terminal myristoylation; In one NMR experiment [13C]-Met labelled; also called wt Irga6; purified Irga6; source: E. coli BL21 (pGEX-4T-2), purified (Glutathione Sepharose, thrombin cleavage, Superdex 75); not shown: GST, N-terminal, cleaved
T1 sequence: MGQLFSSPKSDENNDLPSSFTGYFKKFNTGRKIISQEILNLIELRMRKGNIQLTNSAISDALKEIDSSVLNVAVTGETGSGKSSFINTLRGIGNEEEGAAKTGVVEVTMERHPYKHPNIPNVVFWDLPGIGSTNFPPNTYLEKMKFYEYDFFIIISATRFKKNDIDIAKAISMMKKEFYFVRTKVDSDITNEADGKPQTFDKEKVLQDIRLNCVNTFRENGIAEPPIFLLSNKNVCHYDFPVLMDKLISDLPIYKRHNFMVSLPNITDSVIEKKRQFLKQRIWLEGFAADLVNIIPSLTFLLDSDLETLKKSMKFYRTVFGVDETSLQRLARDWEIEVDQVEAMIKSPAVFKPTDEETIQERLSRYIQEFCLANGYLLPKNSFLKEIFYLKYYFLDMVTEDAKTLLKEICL
Put plainly: NMR titration; 13C-1H HSQC of [13C]-Met labelled ROP5BI without or with unlabeled Irga6; 30°C, 800 MHz. The following applies: both partners purified.

The results in this text go back to article PMC3393671, “A Toxoplasma gondii Pseudokinase Inhibits Host IRG Resistance Proteins” (PLoS Biology, 2012).

B1: ROP5BI pseudokinase domain (domain or fragment, Toxoplasma gondii (type I))
chain: EAGDSFMRDLLKREEELIGYCREEALKEPAAMVEAVTATVWPQNAETTVDSLLSQGERKLKLVEPLRVGDRSVVFLVRDVERLEDFALKVFTMGAENSRSELERLHEATFAAARLLGESPEEARDRRRLLLPSDAVAVQSQPPFAQLSPGQDDYAVANYLLLMPAASVDLELLFSTLDFVYVFRGDEGILALHILTAQLIRLAANLQSKGLVHGHFTPDNLFIMPDGRLMLGDVSALWKVGTRGPASSVPVTYAPREFLNASTATFTHALNAWQLGLSIYRVWCLFLPFGLVTPGIKGSWKRPSLRVPGTDSLAFGSCTPLPDFVKTLIGRFLNFDRRRRLLPLEAMETPEFLQLQNEISSSLSTGQ
notes: pseudokinase domain of ROP5 isoform B of a type I T. gondii strain (ROP5BI); In one NMR experiment [13C]-labelled on the Cε of methionines; also called purified pseudokinase domain protein ROP5BI; source: purified
For B1, the binding result was “binds”.
